Source: patent publication US8853367

Target: chimeric receptor comprising mouse TNFR1 external domain (AA 1 to AA 210) linked to the transmembrane and intracellular domains of mouse RANK (AA 210 to AA 625) (mouse)
Test: cell-based or functional assay

Sequence of chimeric receptor comprising mouse TNFR1 external domain (AA 1 to AA 210) linked to the transmembrane and intracellular domains of mouse RANK (AA 210 to AA 625) (mouse) (chain, as listed by the source mutant): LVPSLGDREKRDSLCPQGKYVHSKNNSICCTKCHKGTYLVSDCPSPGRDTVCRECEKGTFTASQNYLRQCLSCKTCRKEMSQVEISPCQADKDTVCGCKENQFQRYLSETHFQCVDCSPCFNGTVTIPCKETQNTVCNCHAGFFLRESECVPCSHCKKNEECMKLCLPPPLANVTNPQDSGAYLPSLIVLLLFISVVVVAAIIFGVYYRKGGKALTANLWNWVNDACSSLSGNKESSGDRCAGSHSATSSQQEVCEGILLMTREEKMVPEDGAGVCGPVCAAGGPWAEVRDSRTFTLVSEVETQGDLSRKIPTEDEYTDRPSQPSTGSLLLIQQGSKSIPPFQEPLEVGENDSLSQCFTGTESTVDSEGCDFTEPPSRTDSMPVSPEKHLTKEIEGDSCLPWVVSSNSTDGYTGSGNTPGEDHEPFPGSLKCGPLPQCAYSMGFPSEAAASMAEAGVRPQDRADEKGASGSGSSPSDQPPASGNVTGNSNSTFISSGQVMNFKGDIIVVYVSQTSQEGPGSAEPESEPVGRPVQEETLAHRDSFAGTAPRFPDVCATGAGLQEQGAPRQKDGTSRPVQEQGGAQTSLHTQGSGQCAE

osteoclast formation, lowest TNFα concentration still active: 1 ng/mL
Substance: Recombinant mouse TNFα (410-TRNC-050, R&D Systems) (from UniProt P06804 84-235) (ligand)
